Results from WO2016155745A1 (dated 2016).

T1: full-length human recombinant PAD3 (human, UniProt Q9ULW8 1-664)
T1 construct: mature; Full-length recombinant protein coated on plates at 100 ng/mL
T1 sequence (looked up): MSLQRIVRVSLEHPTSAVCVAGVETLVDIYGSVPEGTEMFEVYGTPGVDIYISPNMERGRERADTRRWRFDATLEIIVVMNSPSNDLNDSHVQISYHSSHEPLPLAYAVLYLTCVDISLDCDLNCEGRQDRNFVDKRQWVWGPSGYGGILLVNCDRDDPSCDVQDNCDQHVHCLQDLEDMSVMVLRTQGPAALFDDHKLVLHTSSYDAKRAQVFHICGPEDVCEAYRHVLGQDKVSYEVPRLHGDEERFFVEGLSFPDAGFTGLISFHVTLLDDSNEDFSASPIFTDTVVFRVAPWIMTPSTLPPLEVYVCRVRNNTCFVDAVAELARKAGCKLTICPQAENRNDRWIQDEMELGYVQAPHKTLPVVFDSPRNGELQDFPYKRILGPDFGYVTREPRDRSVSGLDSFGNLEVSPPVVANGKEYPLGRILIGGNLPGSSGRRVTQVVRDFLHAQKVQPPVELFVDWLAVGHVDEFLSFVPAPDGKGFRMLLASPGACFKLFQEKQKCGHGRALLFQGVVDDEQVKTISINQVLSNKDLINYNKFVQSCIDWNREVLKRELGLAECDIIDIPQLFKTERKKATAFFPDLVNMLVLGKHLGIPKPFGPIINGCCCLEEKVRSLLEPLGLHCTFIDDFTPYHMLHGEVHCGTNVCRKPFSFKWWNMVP


How the values were obtained:
[1] = biological target: T2, full-length human recombinant PAD2 (human, UniProt Q9Y2J8 1-665); test: ELISA, purified mAb 1:100 on PAD-coated plates (Fig. 2)
T2 construct: also called rhPAD2; recombinant human PAD2

[2] = biological target: T1, full-length human recombinant PAD3; test: as above
[3] = biological target: full-length human recombinant PAD4 (human, UniProt Q9UM07 1-663); test: as above
murine recombinant PAD2 = biological target: T3, murine recombinant PAD2 (mouse, UniProt Q08642 1-673, limits assumed); test: ELISA, culture supernatant 1:20 on mPAD2-coated plates (Fig. 3)
T3 construct: also called mPAD2; murine PAD2

[4] = biological target: T2, full-length human recombinant PAD2; test: ELISA, culture supernatant 1:20 on PAD2-coated plates (Fig. 3)

T2 sequence (Q9Y2J8 whole entry): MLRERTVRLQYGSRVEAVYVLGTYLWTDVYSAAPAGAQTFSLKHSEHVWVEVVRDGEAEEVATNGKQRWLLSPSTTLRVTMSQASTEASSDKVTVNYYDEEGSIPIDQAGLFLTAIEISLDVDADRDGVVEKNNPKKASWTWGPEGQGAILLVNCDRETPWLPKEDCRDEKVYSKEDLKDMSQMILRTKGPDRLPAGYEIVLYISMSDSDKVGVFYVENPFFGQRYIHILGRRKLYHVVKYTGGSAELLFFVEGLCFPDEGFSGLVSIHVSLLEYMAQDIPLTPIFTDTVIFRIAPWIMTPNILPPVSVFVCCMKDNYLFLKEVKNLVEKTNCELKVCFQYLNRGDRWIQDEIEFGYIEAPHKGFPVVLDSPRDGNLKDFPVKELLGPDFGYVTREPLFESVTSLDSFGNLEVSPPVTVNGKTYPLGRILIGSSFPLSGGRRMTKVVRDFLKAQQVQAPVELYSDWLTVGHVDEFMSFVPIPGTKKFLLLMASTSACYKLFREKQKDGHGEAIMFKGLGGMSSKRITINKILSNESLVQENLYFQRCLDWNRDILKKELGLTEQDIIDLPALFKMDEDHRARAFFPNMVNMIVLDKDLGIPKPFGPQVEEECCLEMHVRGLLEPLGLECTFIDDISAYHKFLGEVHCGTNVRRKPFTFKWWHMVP
full-length human recombinant PAD4, sequence (Q9UM07 whole entry): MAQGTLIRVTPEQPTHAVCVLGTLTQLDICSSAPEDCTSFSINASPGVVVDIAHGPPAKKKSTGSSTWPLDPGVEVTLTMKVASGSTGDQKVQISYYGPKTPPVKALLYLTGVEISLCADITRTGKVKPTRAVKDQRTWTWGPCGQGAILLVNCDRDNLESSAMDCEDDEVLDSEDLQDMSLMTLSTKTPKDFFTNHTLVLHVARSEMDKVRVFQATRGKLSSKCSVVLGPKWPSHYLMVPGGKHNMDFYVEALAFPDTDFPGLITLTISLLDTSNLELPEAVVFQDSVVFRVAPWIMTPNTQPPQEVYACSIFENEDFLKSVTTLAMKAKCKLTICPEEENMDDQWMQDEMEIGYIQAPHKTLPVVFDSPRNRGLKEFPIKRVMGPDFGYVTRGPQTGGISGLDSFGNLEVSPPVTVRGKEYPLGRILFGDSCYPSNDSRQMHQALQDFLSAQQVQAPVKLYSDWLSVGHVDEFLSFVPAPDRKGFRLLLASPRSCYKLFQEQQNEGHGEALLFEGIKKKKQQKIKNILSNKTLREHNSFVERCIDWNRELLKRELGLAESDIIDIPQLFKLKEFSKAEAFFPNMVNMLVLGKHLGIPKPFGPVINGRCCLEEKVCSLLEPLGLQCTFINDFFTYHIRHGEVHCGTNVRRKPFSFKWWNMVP
T3 sequence (Q08642 whole entry): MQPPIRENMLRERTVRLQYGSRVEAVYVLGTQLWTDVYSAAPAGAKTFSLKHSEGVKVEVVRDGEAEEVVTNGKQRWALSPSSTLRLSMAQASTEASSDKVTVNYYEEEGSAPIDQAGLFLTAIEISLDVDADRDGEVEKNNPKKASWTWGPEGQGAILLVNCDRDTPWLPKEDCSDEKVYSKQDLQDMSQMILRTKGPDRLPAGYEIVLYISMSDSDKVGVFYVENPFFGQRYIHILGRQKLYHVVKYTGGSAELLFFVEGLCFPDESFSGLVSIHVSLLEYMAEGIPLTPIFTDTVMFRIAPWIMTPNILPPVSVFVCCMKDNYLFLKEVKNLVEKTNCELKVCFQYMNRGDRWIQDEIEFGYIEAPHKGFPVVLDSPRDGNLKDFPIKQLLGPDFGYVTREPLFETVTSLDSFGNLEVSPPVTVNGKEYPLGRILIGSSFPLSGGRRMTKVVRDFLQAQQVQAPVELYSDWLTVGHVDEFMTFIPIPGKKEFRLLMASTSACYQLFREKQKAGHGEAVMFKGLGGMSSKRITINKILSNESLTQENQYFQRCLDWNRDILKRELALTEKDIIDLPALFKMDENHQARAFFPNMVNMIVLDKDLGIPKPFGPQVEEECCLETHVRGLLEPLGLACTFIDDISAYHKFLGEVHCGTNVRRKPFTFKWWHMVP

| binding result [1] | binding result [2] | binding result [3] | binding result (murine recombinant PAD2) | binding result [4] | Binder |
| --- | --- | --- | --- | --- | --- |
| binds | binds | binds | binds |  | mSol4 (antibody, V domains shown, also called cross-reactive anti-PAD antibody mSol4) VH: LEESGGDLVKLGGSLKLSCAASGFTFSSYYMSWVRQTPEKRLELVAAIHSDGGNTYYPDTVKGRFTISRDNAKNTLYLQMSSLKSEDTALYYCARHSYYGSSYDYWGQGTTLTVSS VL: DIVLTQSPLSLPVSLGDQASISCESSQSLVHSNGITYLHWYLQKPGQSPKLLIYKVSHRFSGVPDRFSGSGSGTDFTLKISRVEAVDLGVYFCSQSTHVPFTFGSGTKLEIKR |
|  | binds | binds | binds | binds | mSol3 (antibody, V domains shown, also called cross-reactive anti-PAD antibody mSol3) VH: EVQLEESGADLVKPGASVKLSCKASGYTFTSYWMHWVKQRPGQGLEWIGEIIPSNGHTNYNEKFKSKATLTVDKSSSTAYMQLSSLTPEDSAVYYCARGRDFFYGFGDYWGQGTTLTVSS VL: not shown |
